Blank lines part the entries; values can stand above or below the binder they belong to.
How the values were obtained:
Assay in all cases: pull-down
[1] = target: CDK12/Cyclin K complex, full-length (WT) CDK12 (human, UniProt Q9NYV4;O75909)
[2] = target: PAF1C-YY/AA (PAF1C containing CDC73-YY/AA) (human, UniProt Q6PD62;Q6P1J9;Q8WVC0;Q8N7H5;Q9GZS3, Y290A | Y293A)
[3] = target: PAF1 complex (five-subunit PAF1C, WT) (human, UniProt Q6PD62;Q6P1J9;Q8WVC0;Q8N7H5;Q9GZS3)

CDK12/Cyclin K complex, full-length (WT) CDK12, sequence (Q9NYV4 whole entry, one chain of several): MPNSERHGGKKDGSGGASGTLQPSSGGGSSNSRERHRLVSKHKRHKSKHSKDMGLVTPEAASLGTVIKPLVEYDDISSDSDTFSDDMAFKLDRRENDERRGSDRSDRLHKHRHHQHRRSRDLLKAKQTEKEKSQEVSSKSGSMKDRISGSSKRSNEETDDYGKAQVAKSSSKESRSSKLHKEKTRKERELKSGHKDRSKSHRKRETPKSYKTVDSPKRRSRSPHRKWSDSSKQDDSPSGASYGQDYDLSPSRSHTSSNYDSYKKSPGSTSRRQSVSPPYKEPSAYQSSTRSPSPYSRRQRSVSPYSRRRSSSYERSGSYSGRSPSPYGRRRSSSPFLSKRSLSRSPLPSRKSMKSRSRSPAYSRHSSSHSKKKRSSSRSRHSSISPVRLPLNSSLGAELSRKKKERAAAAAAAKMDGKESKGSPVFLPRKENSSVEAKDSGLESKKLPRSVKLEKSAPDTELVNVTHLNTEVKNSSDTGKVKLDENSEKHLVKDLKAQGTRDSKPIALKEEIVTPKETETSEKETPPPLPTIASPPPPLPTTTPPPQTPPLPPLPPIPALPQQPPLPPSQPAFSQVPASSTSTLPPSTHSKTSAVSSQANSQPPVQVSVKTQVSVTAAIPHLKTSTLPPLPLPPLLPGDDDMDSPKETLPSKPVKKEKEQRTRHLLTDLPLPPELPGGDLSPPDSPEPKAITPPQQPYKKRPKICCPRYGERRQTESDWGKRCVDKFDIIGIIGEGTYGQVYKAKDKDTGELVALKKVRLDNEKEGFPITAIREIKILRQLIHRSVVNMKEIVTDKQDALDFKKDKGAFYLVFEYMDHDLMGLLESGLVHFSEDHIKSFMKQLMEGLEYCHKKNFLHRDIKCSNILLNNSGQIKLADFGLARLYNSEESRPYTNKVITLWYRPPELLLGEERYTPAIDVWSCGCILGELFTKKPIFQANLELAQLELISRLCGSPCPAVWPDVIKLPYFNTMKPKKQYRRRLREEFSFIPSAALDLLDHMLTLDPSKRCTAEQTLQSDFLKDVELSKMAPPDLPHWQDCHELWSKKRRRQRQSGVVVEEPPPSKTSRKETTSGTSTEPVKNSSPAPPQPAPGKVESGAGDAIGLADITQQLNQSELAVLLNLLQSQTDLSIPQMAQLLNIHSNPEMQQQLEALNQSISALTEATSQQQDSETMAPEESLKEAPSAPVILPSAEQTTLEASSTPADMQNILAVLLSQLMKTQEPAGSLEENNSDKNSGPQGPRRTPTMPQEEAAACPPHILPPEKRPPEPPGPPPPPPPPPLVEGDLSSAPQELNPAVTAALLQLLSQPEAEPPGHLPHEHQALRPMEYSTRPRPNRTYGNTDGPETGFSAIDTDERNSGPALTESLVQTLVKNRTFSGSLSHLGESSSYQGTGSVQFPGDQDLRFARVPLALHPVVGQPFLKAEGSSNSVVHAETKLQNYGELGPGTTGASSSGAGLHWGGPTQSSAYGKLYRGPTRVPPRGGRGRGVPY

binding result [1]: binds
B1: Flag-GST-RPB1-CTD(1586-1971) (domain or fragment)
chain: GGAMSPSYSPTSPAYEPRSPGGYTPQSPSYSPTSPSYSPTSPSYSPTSPNYSPTSPSYSPTSPSYSPTSPSYSPTSPSYSPTSPSYSPTSPSYSPTSPSYSPTSPSYSPTSPSYSPTSPSYSPTSPSYSPTSPSYSPTSPSYSPTSPSYSPTSPSYSPTSPNYSPTSPNYTPTSPSYSPTSPSYSPTSPNYTPTSPNYSPTSPSYSPTSPSYSPTSPSYSPSSPRYTPQSPTYTPSSPSYSPSSPSYSPTSPKYTPTSPSYSPSSPEYTPTSPKYSPTSPKYSPTSPKYSPTSPTYSPTTPKYSPTSPTYSPTSPVYTPTSPKYSPTSPTYSPTSPKYSPTSPTYSPTSPKGSTYSPTSPGYSPTSPTYSLTSPAISPDDSDEEN

binding result [2]: binds
binding result [3]: binds
B2: CDK12(KiD)/Cyclin K complex (complex)
chain 1: not shown
chain 2: MKENKENSSPSVTSANLDHTKPCWYWDKKDLAHTPSQLEGLDPATEARYRREGARFIFDVGTRLGLHYDTLATGIIYFHRFYMFHSFKQFPRYVTGACCLFLAGKVEETPKKCKDIIKTARSLLNDVQFGQFGDDPKEEVMVLERILLQTIKFDLQVEHPYQFLLKYAKQLKGDKNKIQKLVQMAWTFVNDSLCTTLSLQWEPEIIAVAVMYLAGRLCKFEIQEWTSKPMYRRWWEQFVQDVPVDVLEDICHQILDLYSQGKQQMPHHTPHQLQQPPSLQPTPQVPQVQQSQPSQSSEPSQPQQKDPQQPAQQQQPAQQPKKPSPQPSSPRQVKRAVVVSPKEENKAAEPPPPKIPKIETTHPPLPPAHPPPDRKPPLAAALGEAEPPGPVDATDLPKVQIPPPAHPAPVHQPPPLPHRPPPPPPSSYMTGMSTTSSYMSGEGYQSLQSMMKTEGPSYGALPPAYGPPAHLPYHPHVYPPNPPPPPVPPPPASFPPPAIPPPTPGYPPPPPTYNPNFPPPPPRLPPTHAVPPHPPPGLGLPPASYPPPAVPPGGQPPVPPPIPPPGMPPVGGLGRAAWMR

From paper doi:10.1101/2024.10.14.618141 (bioRxiv, 2024)
